Experimental data published in paper PMC4013717, “AFF4 binding to Tat-P-TEFb indirectly stimulates TAR recognition of super elongation complexes at the HIV promoter” (eLife, 2014).

Tests used:
[1] = test system: Cyclin T1 (P-TEFb subunit);CDK9 (P-TEFb subunit);HIV-1 Tat;AFF4 2-73 (human;not given;HIV-1;not given); experiment: EMSA
[2] = test system: Cyclin T1 (P-TEFb subunit);CDK9 (P-TEFb subunit);HIV-1 Tat;AFF4 2-98 (human;not given;HIV-1;not given); experiment: EMSA
[3] = test system: Cyclin T1 (P-TEFb subunit);CDK9 (P-TEFb subunit);HIV-1 Tat;AFF4 32-67 (human;not given;HIV-1;not given); experiment: EMSA
[4] = target: Tat-P-TEFb complex (HIV-1 Tat 1–57, CDK9 1–330, cyclin T1 1–264) (HIV-1 | human, UniProt P04608 1-57; P50750 1-330; O60563 1-264, N-terminally acetylated (N-acetyl group on M1)); experiment: cell-based or functional assay
human cyclin T1 1–264 = target: T1, human cyclin T1 1–264 (human, UniProt O60563 1-264); experiment: crystal structure; quaternary complex of Tat 1–57, AFF4 2–73, CDK9 1–330 and CycT1 1–264; 3.0 Å; three complexes in the a.u.; crystals from 2.4 M sodium formate, 10 mM MgCl2 at 18°C; conditions: both partners purified
T1 construct: human cyclin T1, residues 1-264; also called CycT1
T1 sequence (O60563 1-264): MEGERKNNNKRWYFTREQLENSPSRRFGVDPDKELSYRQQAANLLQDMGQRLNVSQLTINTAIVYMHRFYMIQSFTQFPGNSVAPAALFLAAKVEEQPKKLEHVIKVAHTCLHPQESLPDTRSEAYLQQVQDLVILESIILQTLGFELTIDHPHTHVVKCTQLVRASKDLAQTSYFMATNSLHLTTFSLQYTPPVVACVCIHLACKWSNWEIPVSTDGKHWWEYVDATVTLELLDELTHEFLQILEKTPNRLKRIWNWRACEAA

human CDK9 1–330 = target: T2, human CDK9 1–330 (human, UniProt P50750 1-330); experiment: as above; conditions: both partners purified
T2 construct: human CDK9, residues 1-330
T2 sequence (P50750 1-330): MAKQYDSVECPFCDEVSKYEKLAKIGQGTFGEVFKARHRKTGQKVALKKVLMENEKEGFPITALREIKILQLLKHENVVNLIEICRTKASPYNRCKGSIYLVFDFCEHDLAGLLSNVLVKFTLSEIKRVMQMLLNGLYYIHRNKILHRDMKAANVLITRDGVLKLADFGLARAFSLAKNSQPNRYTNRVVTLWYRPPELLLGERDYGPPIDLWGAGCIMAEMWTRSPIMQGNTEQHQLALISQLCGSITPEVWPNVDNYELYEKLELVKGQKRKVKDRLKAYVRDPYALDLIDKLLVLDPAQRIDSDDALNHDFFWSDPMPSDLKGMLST

[5] = target: Tat-P-TEFb complex (HIV-1 Tat 1–57, CDK9 1–330, cyclin T1 1–264) (HIV-1 | human) (UniProt P04608)

Molecule: TAR RNA (nucleotides 18-44)
- K half [1]: 1.1 nM
- K half [2]: 1.1 nM
- K half [3]: 1.1 nM

B1: AFF4 fragment 2–73 (domain or fragment, UniProt Q9UHB7 2-73, looked up)
chain: NREDRNVLRMKERERRNQEIQQGEDAFPPSSPLFAEPYKVTSKEDKLSSRIQSMLGNYDEMKDFIGDRSIPK
notes: AFF4 (SEC scaffold), residues 2-73; The His-tag is TEV-protease-cleavable; also called AFF4_(2–73); source: E. coli, purified
- EMSA with 32P-labeled TAR RNA and Tat-P-TEFb in the presence of excess AFF4 2–73: increase of the affinity for TAR [4]: 30 fold
- binding result (human cyclin T1 1–264): binds
- binding result (human CDK9 1–330): binds

B2: AFF4 fragment 2–98 (domain or fragment)
chain: NREDRNVLRMKERERRNQEIQQGEDAFPPSSPLFAEPYKVTSKEDKLSSRIQSMLGNYDEMKDFIGDRSIPKLVAIPKPTVPPSADEKSNPNFFEQR
- EMSA with 32P-labeled TAR RNA and Tat-P-TEFb in the presence of excess AFF4 2–98: increase of the affinity for TAR [5]: 30 fold

Molecule: SPLFAEPYKVTSKEDKLSSRIQSMLGNYDEMKDFIG (domain or fragment) [AFF4 fragment 32–67]
- EMSA with 32P-labeled TAR RNA and Tat-P-TEFb in the presence of excess AFF4 32–67: increase of the affinity for TAR [5]: 30 fold
